Experimental findings from article PMC7589338, “The strawberry transcription factor FaRAV1 positively regulates anthocyanin accumulation by activation of FaMYB10 and anthocyanin pathway genes” are described below.

The target in this data set is T1, FaRAV1 (Fragaria × ananassa, UniProt A0A3Q8TB28 1-301).
T1 sequence: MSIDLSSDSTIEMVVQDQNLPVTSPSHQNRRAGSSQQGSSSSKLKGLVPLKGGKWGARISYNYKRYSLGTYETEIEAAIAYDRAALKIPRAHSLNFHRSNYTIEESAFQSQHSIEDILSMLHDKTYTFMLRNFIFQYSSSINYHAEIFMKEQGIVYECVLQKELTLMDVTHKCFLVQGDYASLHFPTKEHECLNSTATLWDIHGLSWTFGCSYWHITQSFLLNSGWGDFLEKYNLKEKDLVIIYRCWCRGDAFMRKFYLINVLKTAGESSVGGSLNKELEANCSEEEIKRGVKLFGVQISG
The experiment in a line: EMSA; 8 nM biotinylated probe; LightShift Chemiluminescent EMSA kit (Thermo), per manufacturer and Ge et al. 2017; 8 nM biotin probe; binding buffer, pH and temperature not stated. To be noted: protein: recombinant; tags: His (pET-32a; described as N-terminal FaRAV1-His fusion); label: 3'-biotin; blunt. (In general: Mobility shift assays separate free from complexed probe on a gel.)

B1: FaMYB10 promoter mutant probe (dsDNA)
DNA 1: AGGGTGGGGACTCGACAGTTTTTAGCTAACTTCCACATGCAATGGATCGAAAT
DNA 2: ATTTCGATCCATTGCATGTGGAAGTTAGCTAAAAACTGTCGAGTCCCCACCCT
In the case of B1, the binding result was “no binding”.
